In paper PMC10221487:

What was measured:
[1] = molecular target: ZV54^CHO (CHO cell-derived ZV54 mAb); assay: SPR; details: remark: other sources report otherwise
[2] = molecular target: ZV54^ΔXF (ZV54 mAb expressed in glycoengineered ΔXF N. benthamiana plants); assay: SPR; details: remark: other sources report otherwise

Kd [1]: 662 nM | Kd [2]: 1890 nM
B1: recombinant human FcγRIIA ectodomain, P12318 34-217 (receptor)
chain: QAAAPPKAVLKLEPPWINVLQEDSVTLTCQGARSPESDSIQWFHNGNLIPTHTQPSYRFKANNNDSGEYTCQTGQTSLSDPVHLTVLSEWLVLQTPHLEFQEGETIMLRCHSWKDKPLVKVTFFQNGKSQKFSHLDPTFSIPQANHSHSGDYHCTGNIGYTLFSSKPVTITVQVPSMGSSSPMG
modifications: not checked
